Results taken from patent US8444970B2, “Compositions and methods for treating ocular diseases and conditions” (Lpath, Inc., priority 2006, dated 2013).

Experiments:
HUVECs = experiment: HUVEC migration, Matrigel chemoinvasion assay; format: cell-based, human; conditions: 1 uM S1P, 1 ug/ml antibody, 6 hr
Procedure: FIG. 5. FIG. 5 has two panels, A and B. In panel A, S1P is shown to promote neovascularization through induction of HUVECs tube formation and migration, which is reduced by SPHINGOMAB. […] The number of cells that migrated to the Matrigel membrane were counted in five independent fields.
Experiments were performed as described by Visentin et al. (Cancer Cell 2006 March; 9(3):225-38).

[1] = test system: murine cardiac fibroblasts; experiment: S1P-stimulated cardiac fibroblast migration, scratch assay; format: cell-based, mouse; conditions: 1 ug/mL antibody, 12-24 hr
Procedure: (§1) FIG. 7. […] See Example 7, below, for experimental details. […] In these experiments, fibroblasts were serum-starved and then treated with 0, 0.1, 0.5, or 1 μM S1P+/−1 μg/mL SPHINGOMAB for 12-24 hr. […] SPHINGOMAB neutralized each of these S1P effects. SPHINGOMAB reduced perivascular fibrosis in vivo in a murine model of a permanent myocardial infarction (E).
(§2) S1P makes profound contributions to wound healing by activating fibroblast migration, proliferation and collagen production; SPHINGOMAB neutralizes these effects. Several studies using multiple types of fibroblasts confirm S1P's ability to promote wound healing: 1) S1P increased Swiss-3T3 fibroblast proliferation as measured by ^3H-thymidine incorporation using standard methods (FIG. 7A); 2) S1P promoted the migration of cardiac fibroblasts in a standard scratch wound healing assay. […] In each of these assays, SPHINGOMAB neutralized S1P's. It is anticipated that ocular fibroblasts would respond similarly to S1P and SPHINGOMAB.

[2] = test system: neovascularization of VEGF- or bFGF-containing Matrigel plugs; experiment: In vivo Matrigel plug assay, bFGF- or VEGF-supplemented plugs, neovascularization; design: species or system mouse; conditions: 25 mg/kg i.p. every 48 hrs, 10 days
Procedure: Endogenous S1P from the blood and surrounding tissue could supply a wound with pro-angiogenic stimuli. The ability of SPHINGOMAB to reduce endogenous S1P in a wound was investigated. Optimally stimulated plugs (Matrigel supplemented with 0.5 μg/mL bFGF or […] VEGF) were implanted into mice. Mice received i.p. injections of 25 mg/kg SPHINGOMAB or saline every 48 hrs starting 1 day prior to Matrigel implantation. Each treatment group (Matrigel, Matrigel plus GF or Matrigel plus GF and administered SPHINGOMAB) consisted of a minimum of 6 mice. After 10 days, the mice were treated with heparin, injected with Isolectin B4-FITC, the plugs excised, embedded in OCT freezing medium and sectioned.

[3] = test system: macrophage and mast cell infiltration; experiment: Murine infarct model, immune cell infiltration into the wound; format: in vivo, mouse; conditions: 25 mg/kg 48 hr after surgery, four days post-MI
Procedure: FIG. 9. […] SPHINGOMAB reduced immune-cell wound infiltration in vivo. Mice were subjected to MI, treated with saline or 25 mg/kg SPHINGOMAB 48 hr. after surgery and then sacrificed on day 4. SPHINGOMAB reduced macrophage (A) and mast cell (B) infiltration into the wound. Data are represented as fold decrease of saline-treated values.
Based upon the similarities of immune and inflammatory responses in CNV and CVD, the efficacy of SPHINGOMAB to mitigate immune cell infiltration into a wound was evaluated in a murine infarct model as an indication of SPHINGOMAB's potential effects in mitigating these damages during AMD [Vine, et al. (2005), Opthalmology., vol 112: 2076-80; and Seddon and Chen (2004), Int Opthalmol Clin., vol 44: 17-39]. Four days post-MI, macrophage and mast cell infiltration was evaluated using MAC-1 and MCG35 antibodies, respectively, within the area at risk.

[4] = test system: CNV lesions after laser rupture of Bruch's membrane; experiment: CNV animal model of AMD, murine vs humanized mAbs (Example 17); format: in vivo, mouse; conditions: 0.5 ug intravitreal Day 0 and Day 6, 14 days post laser
Procedure: The humanized antibody variants and the murine antibody were compared for their ability to inhibit neo-vascularization in the CNV animal model of AMD as shown in FIG. 13. […] Mice were sacrificed 14 days post laser surgery. Control mice were treated with aqueous buffer (PBS) or an isotype-matched non-specific antibody. Three of the humanized variants inhibited angiogenesis essentially equivalently to the murine antibody as assessed by measurement of CNV area. CNV lesion volumes are represented as means±SEM. […]
The morphometric and volumetric CNV lesions were measured as follows. […]
Captured digital images were evaluated morphometrically using ImageJ software (Research Services Branch, National Institutes of Health, Bethesda, Md.). Images were split into separate RGB channels for analysis of the red and green channels as follows: 1) a calibration for the specific objective and microscope was applied to set the pixel-to-length ratio; 2) a threshold was applied using the Otsu algorithm; 3) images will be made binary; 4) a region-of-interest (ROI) was outlined to include the entire lesion area; 5) a particle analysis was performed to quantify the pixel area above the threshold level within the ROI. […]

Swiss 3T3 fibroblasts = experiment: S1P-stimulated fibroblast proliferation (3H-thymidine incorporation); format: cell-based; conditions: 1 ug/mL antibody, 12-24 hr
Procedure: as §1, §2

B1: LT1002: murine anti-S1P monoclonal antibody, IgG1 kappa, hybridoma clone 306D326.26 (antibody, listed as Mus sp., V domains shown)
VH: QAHLQQSDAELVKPGASVKISCKVSGFIFIDHTIHWMKQRPEQGLEWIGCISPRHDITKYNEMFRGKATLTADKSSTTAYIQVNSLTFEDSAVYFCARGGFYGSTIWFDFWGQGTTLTVS
VL: ETTVTQSPASLSMAIGEKVTIRCITTTDIDDDMNWFQQKPGEPPNLLISEGNILRPGVPSRFSSSGYGTDFLFTIENMLSEDVADYYCLQSDNLPFTFGSGTKLEIK
- S1P-induced HUVEC tube formation and migration (HUVECs): reduced
- S1P-promoted cardiac fibroblast migration [1]: neutralized
- decrease in neovascularization of VEGF-containing plugs vs saline-treated animals [2]: 5 fold
- decrease in neovascularization of bFGF-containing plugs vs saline-treated animals [2]: 8.5 fold
- density of inflammatory macrophages [3]: dramatically attenuated
- density of mast cells [3]: dramatically attenuated
- Percent inhibition of lesion size [4]: approximately 80%
- S1P-stimulated Swiss 3T3 fibroblast proliferation (Swiss 3T3 fibroblasts): neutralized
